Assay results as given in the supplement of paper PMC12042874.
± gives the uncertainty stated by the source.

Assay: amyloid nucleation score (Sup35N fusion, yeast selection) (log enrichment); library NNK2; higher = more nucleation; inactive = no reads after selection
Procedure, shortened: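 Using DiMSum, nucleation scores were taken as the log enrichment of output over input reads, centred on the mode score of non-aggregating sequences. The input and output reads came from Illumina sequencing of plasmid inserts, with sequences under 100 input reads excluded. The yeast were psi-negative, expressed Sup35N fused to peptides of 20 random codons, were induced with 100 μM copper sulfate for 24 hours, and were grown 7 days at 30°C on medium lacking adenine and uracil.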

First: RLDGSG
Second: PALCVNAVTKIDRNNCYDNG
The amyloid nucleation score of the first is lower: 0.587 ± 0.2 for the first, 3.92 ± 0.064 for the second.

First: LFERLELFWYNEGHIMGFGL
Second: VIRYINSEDFRTGREFTRGV
The amyloid nucleation score of the first is higher: 3.42 ± 0.049 for the first, -1.68 ± 0.78 for the second.

First: IRQFDIDITNARNKG
Second: MTMGEKTLCPWNHSDLAPSR
The amyloid nucleation score of the first is lower: -1.62 ± 0.62 for the first, 0.966 ± 0.49 for the second.

Compared with RHMSTVKTLSEGLNLESGLI, VMSFHWCVVSSVPWDCQACH is higher in amyloid nucleation score: -0.519 ± 0.74 for the first, 3.93 ± 0.1 for the second.

GVQYRSGESGDSASYWRLGG and CTVRDSMAGIYLVDLVSCIR are within error of each other in amyloid nucleation score: 0.628 ± 0.38 for the first, -0.21 ± 0.6 for the second.

IPNVPCIRGVSYSDFFTSSY and FMTVSDTMFHRIVASPQVPA are within error of each other in amyloid nucleation score: -0.044 ± 0.61 for the first, 0.87 ± 0.32 for the second.

Going from VLPLFNGIARHPCWNLCMPM to VISSRGALCRRAKQ, the amyloid nucleation score rises from -1.27 ± 0.62 to 0.409 ± 0.53.

GCLMVGINGCPIGPM and LLLNNLVYFSLRVYLLNFCL are within error of each other in amyloid nucleation score: -1.11 ± 1.1 for the first, -2.07 ± 0.62 for the second.

Compared with PSFSFVMTLVNFRPDFLSMH, CNYYFVKYQGINGCGTPVKF is higher in amyloid nucleation score: -1.2 ± 0.78 for the first, 3.01 ± 0.12 for the second.

MRMVA and ICFNDILQFTS are within error of each other in amyloid nucleation score: -0.723 ± 0.49 for the first, -0.498 ± 0.44 for the second.

YYTWCYKKVFGNHWRQDFD and WSTAFSKLNSSRKSD are within error of each other in amyloid nucleation score: -1.23 ± 0.64 for the first, -0.582 ± 0.76 for the second.

GIIDMSRLVMHQITEPLLSQ and KVLTCRIYSIWVLIC are within error of each other in amyloid nucleation score: 0.092 ± 0.32 for the first, 0.009 ± 0.32 for the second.

Compared with FFCLIVLVANVTCCGRDEGP, ADLSRRLGMFVVLCLGGWAW is lower in amyloid nucleation score: 5.32 ± 0.055 for the first, -0.326 ± 0.63 for the second.

GWRKSLNWCVYVGEGASIVV and KSIESGRIRK are within error of each other in amyloid nucleation score: 0.517 ± 0.25 for the first, 0.627 ± 0.35 for the second.

First: FESFLTLYIIYTGAANNSWV
Second: VLNIFVT
The amyloid nucleation score of the first is lower: 4.01 ± 0.087 for the first, 7.248 ± 0.061 for the second.

Compared with CQGVSYHYLTACRNKLCHES, YVNFIVFTDMIWDS is higher in amyloid nucleation score: 0.107 ± 0.79 for the first, 4.94 ± 0.09 for the second.

MWRVWECGGRRDNLVRCPSR and IPLRHVLLVMQCRPAL are within error of each other in amyloid nucleation score: 0.774 ± 0.51 for the first, 0.915 ± 0.23 for the second.

Going from SYYMISY to CCDNY, the amyloid nucleation score falls from 2.05 ± 0.12 to -0.778 ± 0.54.

First: LWDLRSEYKFYINMDHFMTV
Second: KVINFGCTTFDYGYATYFGQ
The amyloid nucleation score of the first is lower: -1.4 ± 0.75 for the first, 6.66 ± 0.055 for the second.

SSCVRLDELCAMMSMSWESQ and MRWRMCIIFNLVISY are within error of each other in amyloid nucleation score: 1.26 ± 0.38 for the first, 0.218 ± 1.1 for the second.

DSVIGSLCPNCYGWRISKVM and VSYVDESHFVNTKSDMPSVS are within error of each other in amyloid nucleation score: 0.081 ± 1.1 for the first, -0.392 ± 0.63 for the second.

Compared with RLGPSSWSWHL, VFFGLWRIVRGETSHFYRDE is lower in amyloid nucleation score: 1.52 ± 0.29 for the first, -0.835 ± 0.27 for the second.

Going from KSCSMMFILWVTAGMDRWGH to LSVSCGVKCLEWADMMAHQV, the amyloid nucleation score falls from 6.25 ± 0.09 to -0.533 ± 0.54.

DTLVHMLRYFGGTQPWYM and SDAIKWIYL are within error of each other in amyloid nucleation score: -0.183 ± 0.53 for the first, 0.335 ± 0.29 for the second.

Compared with YYICDLLHSRCEVKLD, RWMILSFSLAWVSMSFENNM is higher in amyloid nucleation score: -0.551 ± 0.37 for the first, 0.784 ± 0.18 for the second.

QHFDLVATGMGYSWAMLYFA and SLAPQMLPCHFSWILDPCC are within error of each other in amyloid nucleation score: 0.776 ± 0.43 for the first, -0.01 ± 1 for the second.

First: VHIMEDVMRRFCDRCTCRTW
Second: VIVWFWRFQNMNVAREFMAE
The amyloid nucleation score of the first is higher: 0.562 ± 0.44 for the first, -0.297 ± 0.37 for the second.

KLGIDRGTVCLWLSV and IPWNQRRKW are within error of each other in amyloid nucleation score: 0.401 ± 0.14 for the first, 0.671 ± 0.16 for the second.

SMRISHTGAQQDLDDCAMRK and AFCMDYAAQSAVTRSRDSCS are within error of each other in amyloid nucleation score: 0.635 ± 0.65 for the first, 0.909 ± 0.53 for the second.

RGMVE and MVGNWDSV are within error of each other in amyloid nucleation score: 0.587 ± 0.53 for the first, -0.011 ± 0.49 for the second.

Compared with CLIAVNTKGRVVHVYGRTGG, PGSVTGMLWSGTFEVRYLGL is lower in amyloid nucleation score: 3.53 ± 0.093 for the first, 0.101 ± 0.26 for the second.

NILTRYS and FGTYSI are within error of each other in amyloid nucleation score: -0.013 ± 0.31 for the first, 0.389 ± 0.74 for the second.

With SSFFVAPGSSLLLIRLLCSS the amyloid nucleation score was “inactive”.
With KHRRYFFCVGSIRWASVYKT the amyloid nucleation score was “inactive”.
For FSVLMEDHSRFIF, the amyloid nucleation score was “inactive”.
In the case of FFFNYLSCLRNAVNWFNRGM, the amyloid nucleation score is reported as “inactive”.
With CYVNWGCNGEISGIVFDSMK the amyloid nucleation score was “inactive”.
With FSFVTFSGNRFDFLLLRPCT the amyloid nucleation score was “inactive”.
